Test results: US20120183570A1 (WASHINGTON STATE UNIVERSITY, published 2012)

How the values were obtained:
[1] = molecular target: T1, Fn gelatin-binding domain (GBD), 40 kDa fragment (human, UniProt P02751 291-630); assay: ELISA on GBD-coated wells, anti-GST detection
T1 construct: also called Fn-GBD

[2] = molecular target: T2, Human plasma fibronectin (Fn) (human, UniProt P02751-9 32-2240, limits assumed); assay: ELISAs with GST domain fusions and Fn
T2 construct: It is treated as the same molecule; also called full-length Fn

[3] = molecular target: T2, Human plasma fibronectin (Fn); assay: ELISA, Fn on peptide-coated wells
[4] = molecular target: T1, Fn gelatin-binding domain (GBD), 40 kDa …; assay: ELISA, GST fusion on GBD-coated wells (FIG. 22)
[5] = molecular target: T3, Fn N-terminal domain (NTD), 30 kDa fragment (human, UniProt P02751 32-290); assay: ELISA on NTD-coated wells, anti-GST detection
T3 construct: domain: N-terminal domain (NTD), FN1 1-5; also called 30 kDa NTD; 30-kDa proteolytic fragment from human Fn

Ovalbumin = molecular target: T4, Ovalbumin (UniProt P01012 2-386); assay: ELISA on ovalbumin-coated wells, anti-GST detection
T4 construct: also called ovalbumin (negative control)
T4 sequence: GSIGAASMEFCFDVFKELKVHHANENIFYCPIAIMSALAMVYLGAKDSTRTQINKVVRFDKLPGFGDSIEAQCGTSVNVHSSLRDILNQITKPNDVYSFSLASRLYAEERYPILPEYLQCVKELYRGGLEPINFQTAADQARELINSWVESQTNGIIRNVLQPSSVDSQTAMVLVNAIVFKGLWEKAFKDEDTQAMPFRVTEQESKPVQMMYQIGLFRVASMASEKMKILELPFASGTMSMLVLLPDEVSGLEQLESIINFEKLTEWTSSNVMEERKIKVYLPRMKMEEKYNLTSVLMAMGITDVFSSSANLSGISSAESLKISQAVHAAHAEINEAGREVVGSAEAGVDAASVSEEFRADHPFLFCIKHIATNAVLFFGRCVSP

[6] = molecular target: Bovine serum albumin (BSA) (bovine, UniProt P02769 25-607); assay: ELISA on BSA-coated wells, anti-GST detection
Sequence of Bovine serum albumin (BSA) (P02769 25-607 limits assumed): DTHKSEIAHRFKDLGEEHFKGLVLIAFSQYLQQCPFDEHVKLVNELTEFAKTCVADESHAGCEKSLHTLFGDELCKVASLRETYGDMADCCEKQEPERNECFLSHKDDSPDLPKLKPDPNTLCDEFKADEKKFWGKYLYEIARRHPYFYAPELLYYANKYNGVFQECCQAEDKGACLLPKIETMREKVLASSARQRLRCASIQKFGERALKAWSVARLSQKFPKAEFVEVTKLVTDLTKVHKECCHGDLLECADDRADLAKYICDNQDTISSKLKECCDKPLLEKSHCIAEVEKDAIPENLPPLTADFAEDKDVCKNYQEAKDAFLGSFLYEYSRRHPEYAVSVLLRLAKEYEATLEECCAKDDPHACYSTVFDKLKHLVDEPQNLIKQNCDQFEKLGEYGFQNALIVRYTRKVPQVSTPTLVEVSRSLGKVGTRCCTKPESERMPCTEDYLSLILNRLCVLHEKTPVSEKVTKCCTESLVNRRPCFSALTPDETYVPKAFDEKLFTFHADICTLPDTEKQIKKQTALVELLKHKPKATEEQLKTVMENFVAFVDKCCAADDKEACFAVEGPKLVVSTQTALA

T2 sequence (P02751 other isoform, or with tags, fused parts or gaps limits assumed): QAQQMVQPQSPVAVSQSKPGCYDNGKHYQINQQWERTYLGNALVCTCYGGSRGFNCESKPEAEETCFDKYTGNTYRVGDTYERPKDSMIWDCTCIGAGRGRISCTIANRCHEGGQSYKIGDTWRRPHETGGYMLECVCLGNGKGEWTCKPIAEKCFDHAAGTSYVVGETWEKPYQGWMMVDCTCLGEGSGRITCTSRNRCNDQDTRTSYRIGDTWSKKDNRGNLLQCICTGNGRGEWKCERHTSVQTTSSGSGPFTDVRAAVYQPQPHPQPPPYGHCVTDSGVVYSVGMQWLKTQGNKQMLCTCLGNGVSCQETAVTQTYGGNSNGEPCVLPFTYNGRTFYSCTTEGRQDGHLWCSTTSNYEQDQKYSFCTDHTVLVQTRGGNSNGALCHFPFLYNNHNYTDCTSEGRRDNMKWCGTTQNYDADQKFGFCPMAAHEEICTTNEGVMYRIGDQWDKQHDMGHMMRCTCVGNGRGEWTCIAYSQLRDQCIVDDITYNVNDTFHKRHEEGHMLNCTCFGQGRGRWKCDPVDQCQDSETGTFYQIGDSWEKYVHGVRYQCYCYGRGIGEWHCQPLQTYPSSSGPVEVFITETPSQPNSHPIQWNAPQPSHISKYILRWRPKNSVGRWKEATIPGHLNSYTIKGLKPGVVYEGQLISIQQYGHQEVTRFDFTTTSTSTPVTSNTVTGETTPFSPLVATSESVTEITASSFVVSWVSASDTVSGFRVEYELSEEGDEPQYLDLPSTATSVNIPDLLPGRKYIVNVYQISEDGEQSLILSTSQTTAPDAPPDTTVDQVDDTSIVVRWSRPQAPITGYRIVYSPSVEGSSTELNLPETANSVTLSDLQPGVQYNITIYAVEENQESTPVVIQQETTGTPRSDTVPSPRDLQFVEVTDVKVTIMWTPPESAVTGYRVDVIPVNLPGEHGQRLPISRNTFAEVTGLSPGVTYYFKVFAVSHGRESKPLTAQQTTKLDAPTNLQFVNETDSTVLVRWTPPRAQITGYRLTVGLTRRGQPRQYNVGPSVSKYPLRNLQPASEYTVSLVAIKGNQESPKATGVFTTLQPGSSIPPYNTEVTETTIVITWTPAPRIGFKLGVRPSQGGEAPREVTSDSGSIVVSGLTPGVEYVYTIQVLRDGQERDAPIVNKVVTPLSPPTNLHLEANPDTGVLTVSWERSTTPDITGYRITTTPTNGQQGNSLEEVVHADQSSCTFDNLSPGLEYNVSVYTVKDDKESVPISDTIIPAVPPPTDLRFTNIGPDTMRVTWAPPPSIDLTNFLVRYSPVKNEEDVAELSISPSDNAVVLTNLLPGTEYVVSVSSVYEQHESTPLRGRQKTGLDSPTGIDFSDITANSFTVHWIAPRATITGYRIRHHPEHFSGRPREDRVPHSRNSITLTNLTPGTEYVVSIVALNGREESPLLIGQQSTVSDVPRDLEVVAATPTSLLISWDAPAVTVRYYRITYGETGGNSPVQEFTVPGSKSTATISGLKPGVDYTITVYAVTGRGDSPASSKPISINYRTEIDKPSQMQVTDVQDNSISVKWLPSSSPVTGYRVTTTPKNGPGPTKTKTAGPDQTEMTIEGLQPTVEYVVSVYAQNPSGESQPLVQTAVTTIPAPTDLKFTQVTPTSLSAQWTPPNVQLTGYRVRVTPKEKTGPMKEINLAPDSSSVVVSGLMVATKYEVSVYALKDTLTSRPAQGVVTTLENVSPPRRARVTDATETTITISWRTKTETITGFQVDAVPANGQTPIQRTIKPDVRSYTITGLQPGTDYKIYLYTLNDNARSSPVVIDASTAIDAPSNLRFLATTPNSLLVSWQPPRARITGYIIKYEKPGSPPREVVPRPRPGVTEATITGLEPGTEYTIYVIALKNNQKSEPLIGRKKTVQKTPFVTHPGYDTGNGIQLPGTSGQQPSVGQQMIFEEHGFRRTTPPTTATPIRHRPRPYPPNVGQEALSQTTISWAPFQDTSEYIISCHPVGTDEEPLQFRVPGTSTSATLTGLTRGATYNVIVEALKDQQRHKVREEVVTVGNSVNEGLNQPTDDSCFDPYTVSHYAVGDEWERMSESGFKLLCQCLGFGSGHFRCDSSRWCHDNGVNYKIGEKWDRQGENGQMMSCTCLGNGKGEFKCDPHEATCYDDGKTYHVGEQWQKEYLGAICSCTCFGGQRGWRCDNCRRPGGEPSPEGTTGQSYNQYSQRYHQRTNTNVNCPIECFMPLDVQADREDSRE
T1 sequence (P02751 291-630 limits assumed): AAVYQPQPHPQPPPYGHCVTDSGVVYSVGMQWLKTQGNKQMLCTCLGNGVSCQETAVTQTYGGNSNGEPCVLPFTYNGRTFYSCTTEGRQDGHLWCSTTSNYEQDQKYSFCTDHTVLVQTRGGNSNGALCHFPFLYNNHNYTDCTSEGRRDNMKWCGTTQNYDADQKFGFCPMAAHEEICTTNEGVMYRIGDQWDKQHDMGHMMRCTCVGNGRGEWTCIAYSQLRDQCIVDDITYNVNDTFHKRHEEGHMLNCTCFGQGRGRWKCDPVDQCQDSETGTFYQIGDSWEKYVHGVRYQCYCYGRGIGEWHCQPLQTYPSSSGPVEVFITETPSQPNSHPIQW
T3 sequence (P02751 32-290 limits assumed): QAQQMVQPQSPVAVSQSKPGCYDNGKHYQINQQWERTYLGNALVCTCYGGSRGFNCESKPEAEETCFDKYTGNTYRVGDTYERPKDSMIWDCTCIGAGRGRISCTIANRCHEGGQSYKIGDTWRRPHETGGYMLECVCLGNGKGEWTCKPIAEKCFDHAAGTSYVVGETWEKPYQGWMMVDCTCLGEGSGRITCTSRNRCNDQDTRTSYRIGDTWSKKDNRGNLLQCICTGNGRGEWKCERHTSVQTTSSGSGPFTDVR

B1: FlpA-D1-GST (aa35-132) (other)
chain: PAVNESLPKVESLKSLSDMSNIAFEWEPLYNENIKGFYLYRSSDENPDFKLVGTIKDKFQTHYVDTKLEPGTKYRYMMKSFNEQGQISEDGKVIEVST
notes: not shown: glutathione S-transferase (GST) tag of vector pGEX-5x-1, N-terminal
Question: Does B1 bind [1]?
Answer: no binding (tested: up to 1000 nM)

Question: Does B1 bind [2]?
Answer: no binding

Question: Does KKIAEVKNRLNAEYIDSDLKPNENSSYRII (Synthetic 30mer of FlpA-D2) [FlpA peptide P4 (K180-I209)] bind [3]?
Answer: no binding

Question: Does FVQAVTNLPNRIKLIWR (Synthetic peptide) [FlpA peptide P7 (F141-R157)] bind [3]?
Answer: no binding

B2: CadF peptide FRLS- (aa118-133) (peptide)
peptide: YDNKSGGFGHYGAGVK
notes: Synthetic negative control peptide; also called CadF FRLS^-
Question: Does B2 bind [3]?
Answer: no binding

B3: FlpA-D2-GST (aa135-226) (other)
chain: RLEAVPFVQAVTNLPNRIKLIWRPHPDFRVDSYIIERTKGDDKEFKKIAEVKNRLNAEYIDSDLKPNENSSYRIIAVSFNGIKSGSSQVVSS
notes: also called FlpA domain 2; not shown: glutathione S-transferase (GST) tag of vector pGEX-5x-1, N-terminal
Question: Does B3 bind [4]?
Answer: binds

Question: Does B3 bind [5]?
Answer: no binding (tested: up to 1000 nM)

Question: Does B3 bind (Ovalbumin)?
Answer: no binding (tested: up to 1000 nM)

B4: FlpA-GST (aa35-410) (other)
chain: PAVNESLPKVESLKSLSDMSNIAFEWEPLYNENIKGFYLYRSSDENPDFKLVGTIKDKFQTHYVDTKLEPGTKYRYMMKSFNEQGQISEDGKVIEVSTAPRLEAVPFVQAVTNLPNRIKLIWRPHPDFRVDSYIIERTKGDDKEFKKIAEVKNRLNAEYIDSDLKPNENSSYRIIAVSFNGIKSGSSQVVSSTSKALPPQVEHLSASTDGSSKIILTWDAPTYEDFSYYKVYSTSSSFLPFSVLAKTDKNSYEDIVEGAGKSKYYKVTMVDKDGLESPMPKDGVEGKTLGNPLAPSIILAQSTSEGINLEWSDNDTRAVEYEVRRYGGEQNAVFKGIKEKRLKDVKALPGVEYSYEVIAIDSAGLRSEPSSKVKAA
notes: also called full-length FlpA-GST; FlpA full-length; not shown: glutathione S-transferase (GST) tag of vector pGEX-5x-1, N-terminal
Question: Does B4 bind [6]?
Answer: no binding

Question: Does B4 bind [5]?
Answer: no binding (tested: up to 1000 nM)

Question: Does B4 bind (Ovalbumin)?
Answer: no binding (tested: up to 1000 nM)

Question: Does DSYIIERTKGDDKEFKKIAEVKNRLNAEYI (Synthetic 30mer of FlpA-D2) [FlpA peptide P3 (D165-I194)] bind [3]?
Answer: no binding (tested: Fn up to 20 µg/ml)

B5: FlpA peptide P5 (D195-V224) (peptide)
peptide: DSDLKPNENSSYRIIAVSFNGIKSGSSQVV
notes: Synthetic 30mer of FlpA-D2; Used as a negative control in later ELISAs
Question: Does B5 bind [3]?
Answer: no binding

B6: FlpA-D3-GST (aa232-410) (other)
chain: PPQVEHLSASTDGSSKIILTWDAPTYEDFSYYKVYSTSSSFLPFSVLAKTDKNSYEDIVEGAGKSKYYKVTMVDKDGLESPMPKDGVEGKTLGNPLAPSIILAQSTSEGINLEWSDNDTRAVEYEVRRYGGEQNAVFKGIKEKRLKDVKALPGVEYSYEVIAIDSAGLRSEPSSKVKAA
notes: as for B1
Question: Does B6 bind [1]?
Answer: no binding (tested: up to 1000 nM)

Question: Does B6 bind [2]?
Answer: no binding
